Laboratory results as given in patent EP4339209A1 (MediMabbio Inc., dated 2024).

How the values were obtained:
[1] = target: recombinant human GITR (Cat No. 13643-H08H, Lot No. LC12JA2509, Sino Biological) (human) (UniProt Q9Y5U5); experiment: SPR Biacore 8K, single-cycle kinetics, IgG in supernatant captured on Protein A, GITR as analyte
[2] = target: recombinant human GITR (Cat No. 13643-H08H, Lot No. LC12JA2509, Sino Biological) (human) (UniProt Q9Y5U5); experiment: SPR Biacore 8K, multi-cycle kinetics, purified IgG captured on Protein A, GITR as analyte

Binder	Kd [1] [nM]	Relative KD (fold vs VH0/VL0) [1]	koff [1] [s⁻¹]	kon [1] [M⁻¹ s⁻¹]	Kd [2] [nM]	Relative KD (fold vs VH0/VL0) [2]	koff [2] [s⁻¹]	kon [2] [M⁻¹ s⁻¹]
anti-GITR 51B VH0/VL1 antibody (human IgG1, kappa) (antibody, V domains shown) VH: QVQLQQSGAELMKPGASVKLSCKTTGYRFTGYWIEWVKQRPGHGLEWIGEILPGSGATYYSENFKGKATFTADTSSNTAYMQVSSLTTGDSAIYYCARKGGYYAMDYWGQGTSVTVSS VL: QIVLTQSPAIMSASLGERVTMSCTASSSVSSSYFHWYQQKPGSAPKLWIYSTSNLASGVPDRFSGSGSGTDYTLTVSSLQAEDVATYYCHLYHRSPRTFGGGTTVDIKR	0.527	0.9	0.000338	642000				
anti-GITR 51B VH4/VL4 humanized antibody (human IgG1, kappa) (antibody, V domains shown) VH: QVQLVQSGAEVKKPGASVKVSCKTTGYRFTGYWINWVRQPPGKGLEWIGEILPGSGATYYSENFKGKVTITADTSTDTAYMELSSLRSEDTAIYYCARKGGYYAMDYWGQGTLVTVSS VL: EIVLTQSPATLSLSPGERATLSCTASSSVSSSYFHWYQQKPGKAPKLWIYSTSNLQSGVPDRFSGSGSGTDYTLTISSLQAEDVATYYCHLYHRSPRTFGGGTKVEIKR	0.987	1.7	0.00053	537000	0.829	1.45	0.000488	590000
anti-GITR 51B VH5/VL5 humanized antibody (human IgG1, kappa) (antibody, V domains shown) VH: QVQLVQSGAEVKKPGASVKVSCKTTGYRFTGYWIDWVRQPPGKGLEWIGEILPGSGATYYSENFKGKVTITADTSTDTAYMELSSLRSEDTAIYYCARKGGYYAMDYWGQGTLVTVSS VL: EIVLTQSPATLSLSPGERATLSCTASSSVSSSYFHWYQQKPGKAPKLWIYSTSNLESGVPDRFSGSGSGTDYTLTISSLQAEDVATYYCHLYHRSPRTFGGGTKVEIKR	3.32	5.9	0.000975	294000				
anti-GITR 51B VH4/VL5 humanized antibody (human IgG1, kappa) (antibody, V domains shown) VH: QVQLVQSGAEVKKPGASVKVSCKTTGYRFTGYWINWVRQPPGKGLEWIGEILPGSGATYYSENFKGKVTITADTSTDTAYMELSSLRSEDTAIYYCARKGGYYAMDYWGQGTLVTVSS VL: EIVLTQSPATLSLSPGERATLSCTASSSVSSSYFHWYQQKPGKAPKLWIYSTSNLESGVPDRFSGSGSGTDYTLTISSLQAEDVATYYCHLYHRSPRTFGGGTKVEIKR	1.26	2.2	0.000599	474000				
anti-GITR 51B VH1/VL0 antibody (human IgG1, kappa) (antibody, V domains shown) VH: QVQLVQSGAELKKPGASVKLSCKTTGYRFTGYWIEWVRQPPGKGLEWIGEILPGSGATYYSENFKGKATITADTSTNTAYMEVSSLRSGDSAIYYCARKGGYYAMDYWGQGTSVTVSS VL: QIVLTQSPAIMSASLGERVTMTCTASSSVSSSYFHWYQQKPGSSPKLWIYSTSNLASGVPARFSGSGSGTSYSLTVSSLEAEDAATYYCHLYHRSPRTFGGGTTLDIKR	1.08	1.9	0.000654	603000				
anti-GITR 51B VH2/VL5 humanized antibody (human IgG1, kappa) (antibody, V domains shown) VH: QVQLVQSGAEVKKPGASVKLSCKTTGYRFTGYWIEWVRQPPGKGLEWIGEILPGSGATYYSENFKGKATITADTSTNTAYMEVSSLRSEDTAIYYCARKGGYYAMDYWGQGTLVTVSS VL: EIVLTQSPATLSLSPGERATLSCTASSSVSSSYFHWYQQKPGKAPKLWIYSTSNLESGVPDRFSGSGSGTDYTLTISSLQAEDVATYYCHLYHRSPRTFGGGTKVEIKR	1.33	2.3	0.000635	477000				
anti-GITR 51B VH5/VL1 humanized antibody (human IgG1, kappa) (antibody, V domains shown) VH: QVQLVQSGAEVKKPGASVKVSCKTTGYRFTGYWIDWVRQPPGKGLEWIGEILPGSGATYYSENFKGKVTITADTSTDTAYMELSSLRSEDTAIYYCARKGGYYAMDYWGQGTLVTVSS VL: QIVLTQSPAIMSASLGERVTMSCTASSSVSSSYFHWYQQKPGSAPKLWIYSTSNLASGVPDRFSGSGSGTDYTLTVSSLQAEDVATYYCHLYHRSPRTFGGGTTVDIKR	1.94	3.4	0.000742	382000				
anti-GITR 51B VH2/VL4 humanized antibody (human IgG1, kappa) (antibody, V domains shown) VH: QVQLVQSGAEVKKPGASVKLSCKTTGYRFTGYWIEWVRQPPGKGLEWIGEILPGSGATYYSENFKGKATITADTSTNTAYMEVSSLRSEDTAIYYCARKGGYYAMDYWGQGTLVTVSS VL: EIVLTQSPATLSLSPGERATLSCTASSSVSSSYFHWYQQKPGKAPKLWIYSTSNLQSGVPDRFSGSGSGTDYTLTISSLQAEDVATYYCHLYHRSPRTFGGGTKVEIKR	1.15	2	0.000577	502000				
anti-GITR 51B VH5/VL4 humanized antibody (human IgG1, kappa) (antibody, V domains shown) VH: QVQLVQSGAEVKKPGASVKVSCKTTGYRFTGYWIDWVRQPPGKGLEWIGEILPGSGATYYSENFKGKVTITADTSTDTAYMELSSLRSEDTAIYYCARKGGYYAMDYWGQGTLVTVSS VL: EIVLTQSPATLSLSPGERATLSCTASSSVSSSYFHWYQQKPGKAPKLWIYSTSNLQSGVPDRFSGSGSGTDYTLTISSLQAEDVATYYCHLYHRSPRTFGGGTKVEIKR	1.37	2.4	0.00149	1.08e+06				
anti-GITR 51B VH2/VL1 humanized antibody (human IgG1, kappa) (antibody, V domains shown) VH: QVQLVQSGAEVKKPGASVKLSCKTTGYRFTGYWIEWVRQPPGKGLEWIGEILPGSGATYYSENFKGKATITADTSTNTAYMEVSSLRSEDTAIYYCARKGGYYAMDYWGQGTLVTVSS VL: QIVLTQSPAIMSASLGERVTMSCTASSSVSSSYFHWYQQKPGSAPKLWIYSTSNLASGVPDRFSGSGSGTDYTLTVSSLQAEDVATYYCHLYHRSPRTFGGGTTVDIKR	1.1	1.9	0.000734	665000				
anti-GITR 51B VH4/VL1 humanized antibody (human IgG1, kappa) (antibody, V domains shown) VH: QVQLVQSGAEVKKPGASVKVSCKTTGYRFTGYWINWVRQPPGKGLEWIGEILPGSGATYYSENFKGKVTITADTSTDTAYMELSSLRSEDTAIYYCARKGGYYAMDYWGQGTLVTVSS VL: QIVLTQSPAIMSASLGERVTMSCTASSSVSSSYFHWYQQKPGSAPKLWIYSTSNLASGVPDRFSGSGSGTDYTLTVSSLQAEDVATYYCHLYHRSPRTFGGGTTVDIKR	1.05	1.9	0.00066	627000				
anti-GITR 51B VH1/VL1 humanized antibody (human IgG1, kappa) (antibody, V domains shown) VH: QVQLVQSGAELKKPGASVKLSCKTTGYRFTGYWIEWVRQPPGKGLEWIGEILPGSGATYYSENFKGKATITADTSTNTAYMEVSSLRSGDSAIYYCARKGGYYAMDYWGQGTSVTVSS VL: QIVLTQSPAIMSASLGERVTMSCTASSSVSSSYFHWYQQKPGSAPKLWIYSTSNLASGVPDRFSGSGSGTDYTLTVSSLQAEDVATYYCHLYHRSPRTFGGGTTVDIKR	1.32	2.3	0.000949	721000				
anti-GITR 51B VH3/VL5 humanized antibody (human IgG1, kappa) (antibody, V domains shown) VH: QVQLVQSGAEVKKPGASVKVSCKTTGYRFTGYWIEWVRQPPGKGLEWIGEILPGSGATYYSENFKGKVTITADTSTDTAYMELSSLRSEDTAIYYCARKGGYYAMDYWGQGTLVTVSS VL: EIVLTQSPATLSLSPGERATLSCTASSSVSSSYFHWYQQKPGKAPKLWIYSTSNLESGVPDRFSGSGSGTDYTLTISSLQAEDVATYYCHLYHRSPRTFGGGTKVEIKR	0.916	1.6	0.000507	554000	0.778	1.37	0.000456	586000
anti-GITR 51B VH3/VL1 humanized antibody (human IgG1, kappa) (antibody, V domains shown) VH: QVQLVQSGAEVKKPGASVKVSCKTTGYRFTGYWIEWVRQPPGKGLEWIGEILPGSGATYYSENFKGKVTITADTSTDTAYMELSSLRSEDTAIYYCARKGGYYAMDYWGQGTLVTVSS VL: QIVLTQSPAIMSASLGERVTMSCTASSSVSSSYFHWYQQKPGSAPKLWIYSTSNLASGVPDRFSGSGSGTDYTLTVSSLQAEDVATYYCHLYHRSPRTFGGGTTVDIKR	0.693	1.2	0.000543	784000	0.606	1.06	0.000482	796000
anti-GITR 51B VH1/VL4 humanized antibody (human IgG1, kappa) (antibody, V domains shown) VH: QVQLVQSGAELKKPGASVKLSCKTTGYRFTGYWIEWVRQPPGKGLEWIGEILPGSGATYYSENFKGKATITADTSTNTAYMEVSSLRSGDSAIYYCARKGGYYAMDYWGQGTSVTVSS VL: EIVLTQSPATLSLSPGERATLSCTASSSVSSSYFHWYQQKPGKAPKLWIYSTSNLQSGVPDRFSGSGSGTDYTLTISSLQAEDVATYYCHLYHRSPRTFGGGTKVEIKR	1.31	2.3	0.000616	469000				
anti-GITR 51B VH1/VL5 humanized antibody (human IgG1, kappa) (antibody, V domains shown) VH: QVQLVQSGAELKKPGASVKLSCKTTGYRFTGYWIEWVRQPPGKGLEWIGEILPGSGATYYSENFKGKATITADTSTNTAYMEVSSLRSGDSAIYYCARKGGYYAMDYWGQGTSVTVSS VL: EIVLTQSPATLSLSPGERATLSCTASSSVSSSYFHWYQQKPGKAPKLWIYSTSNLESGVPDRFSGSGSGTDYTLTISSLQAEDVATYYCHLYHRSPRTFGGGTKVEIKR	1.41	2.5	0.000628	445000				
